Reference: article PMC12102759

Target: T1, SARS‐CoV‐2 NSP3 SUD‐M domain (1356–1493), tag cleaved, for FP, P0DTD1
T1 chain: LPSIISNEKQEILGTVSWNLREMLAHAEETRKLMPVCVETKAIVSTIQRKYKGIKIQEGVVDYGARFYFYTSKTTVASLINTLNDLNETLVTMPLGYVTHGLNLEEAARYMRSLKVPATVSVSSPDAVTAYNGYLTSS
Assay: fluorescence polarization (FP)-based affinity measurement
Settings: chain shown with the change;; read off a plot

QFTEEELHFVLYGVTPY [PRDM14 wt peptide 196-211 D201E]
ratio to parent: 14 fold

QFTEEDLMFVLYGVTPY [PRDM14 wt peptide 196-211 H203M]
ratio to parent: 5.6 fold
